According to the RNAGym collection of RNA variant scans (doi:10.1073/pnas.2313332121):

B1: TPR t1 (parent)
chain: GACCAAUCUGCCCUCAGAGCUCGAGAACAUCUUCGGAUGCAGAGGAGGCAGGCUUCGGUGGCGCGAUAGCGCCAACGUCCUCAACCUCCAAUGCAUCCCACCACAUGAUGAUGCCUGAAGAGCCUUGGUUUUUUG

Variants of: B1
Assay: polymerase ribozyme fitness, log enrichment relative to wild type (log ratio); higher = more active; in vitro selection for triplet polymerase activity
Summary of the method: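 Both subunits of a heterodimeric triplet polymerase ribozyme were given their own mutant library, built by PCR and transcribed. Each library was annealed with a biotinylated primer, the partner subunit and triplets, incubated frozen at −7 °C, and its extended constructs gel-excised, captured on streptavidin beads and amplified by RT-PCR, all in one round done in triplicate. Fitness is the logarithm of genotype enrichment relative to wild-type enrichment, with replicates averaged by inverse-variance weighting. That logarithm is base 2, and Illumina-sequenced genotypes needed ≥10 input reads and ≥1 read per output.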

| Variant | polymerase ribozyme fitness (log ratio) |
| --- | --- |
| GACCAAUCUGCCCUCAGAGCUCGAGAACAUCUUCGGAUGCAGAGGAGGCAGGCUCCGGUGCCGCGAUAGCGCCAACGUCAUCAACCUCCAAUGCAUCCCACCACAUGAUGAUGCCUGAAGAGCCUUGGUUUUUUG | -3.32 |
| GACCAAUCUGCCCUCAGAGCUCGAGAACAUCUUCGGAUGCAGAGGAGGCAGGCUCCGGUGGCGCGAUAGCGCCAACGUCCUCCACCUCCAAUGCAUCCCACCACAUGAUGAUGCCCGAAGAGCCUUGGUUUUUUG | -2.32 |
| GACCAAUCUGCCCUCAGAGCUCGAGAACAUCUUCGGAUGCAGAGGAGGCAGGCUCCGGAGGCGCGAUAGCGCCAACGUCCUCAACCUUCAAUGCAUCCCACCACAUGAUGAUGCCUGAAGAGCCUUGGUUUUUUG | -0.406 |
| GACCAAUCUGCCCUCAGAGCUCGAGAACAUCUUCGGAUGCAGAGGAGGCAGGCUCCUGUGGCGCGCUAGCGCCAACGUCCUCAACCUCCAAUGCAUCCCACCACAUGAUGAUGCCUGAAGAGGCUUGGUUUUUUG | -0.734 |
| GACCAAUCUGCCCUCAGAGCUCGAGAACAUCUUCGGAUGCAGAGGAGGCAGGCUCCGGUGGCGCGAUAGCGCCAACGUCCUCAACCGCCAAUGCAUCCCACCACAUGAUGAUGCCUGAAGAGCCUUGGUUUUUUU | -1.63 |
| GACCAAUCUGCCCUCAGAGCUCGAGAACAUCUUCGGAUGCAGAGGAGGCAGGCUCCGGUGGCGCGAUAGCGGCAACGUCCUCAACCUCCAAUGCAUCCCACCACAUGAUGAUGCCUGAAGAGCCUUGGUUUUUUG | -0.713 |
| GACCAAUCUGCCCUCAGAGCUCGAGAACAUCUUCGGAUGCAGAGGAGGCAGGCUCCGGUGGCGCGAUAGCGCCAACGUCCUCAACCUCCAAUGCAUCCCACCACAUGAUGAUUCCUGAAGAGCCUUGGUUUUUUG | -3.3 |
| GACCAAUCUGCCCUCAGAGCUCGAGAACAUCUUCGGAUGCAGAGGAGGCAGGCUCCGGUGGCGCGAUAGCGCCAACGUCCUCAACCUCCAAUGCAUCCCACCACAUGAUGAUACCUGAAGAGCCUUGGUUUUUUG | -1.89 |
| GACCAAUCUGCCCUCAGAGCUCGAGAACAUCUUCGGAUGCAGAGGAGGCAGGCUGCGGUGGCGCGAUAGCGCCAACGUCCUCAACCUCCAAUGCAUCCCACCCCAUGAUGAUGCCUGAAGAGCCUUGGUUUUUUG | -4.87 |
| GACCAAUCUGCCCUCAGAGCUCGAGAACAUCUUCGGAUGCAGAGGAGGCAGGCUCUGGUGGCGCGAUAGCGCCAACGCCCUCAACCUCCAAUACAUCCCAACACAUGAUGAUGCCUGAAGAGCCUUGGUUUUUUG | -1.12 |
| GACCAAUCUGCCCUCAGAGCUCGAGAACAUCUUCGGAUGCAGAGGAGGCAGGCUCCGGUGGCGCGAUAGCGCCAACGUCCUCAACCUCCAAUGCAUCCCACCACAUGAUGUUGCCUAAAGAGCCUUGGUUUUUUG | -6.33 |
| GACCAAUCUGCCCUCAGAGCUCGAGAACAUCUUCGGAUGCAGAGGAGGCAGGCUCCGGUGGCGCGAUAGCGCCAACGUCCUCGAUCUCCAAUGCAUCCCACCACAUGAUGAUGCCUGAAGAGCAUUGGUUUUUUG | 0.55 |
| GACCAAUCUGCCCUCAGAGCUCGAGAACAUCUUCGGAUGCAGAGGAGGCAGGCUGGGGUGGCGCGAUGGCGCCAACGUCCUCAACCUCCAAUGCAUCCCACCACAUGAUGAUGCCUGAAGAGCCUUGGUUUUUUG | -5.14 |
| GACCAAUCUGCCCUCAGAGCUCGAGAACAUCUUCGGAUGCAGAGGAGGCAGGCUCCGGUGGCGCGGUAGCGCCAACGUCCUCAACCUCCUAUGCAUCCCACCACAUGAUGAUGCCUGAAGAGCCUUGGUUUUUUG | -4.46 |
| GACCAAUCUGCCCUCAGAGCUCGAGAACAUCUUCGGAUGCAGAGGAGGCAGGCUACGGUGGCGCGAUAGCGCCAACGUCCACAACCUCCAAUGCAUCCCACCACAUGAUGAUGCCUGAAGAGCCUUGGUUUUUUG | -0.637 |
| GACCAAUCUGCCCUCAGAGCUCGAGAACAUCUUCGGAUGCAGAGGAGGCAGGCUCCGGUGGCGCGAUACCGCCAACGUACUCAACCUCCAAUGCAUCCCACCACAUGAUGAUGCCUGAAGAGCCUUGGUUUUUUG | -3.59 |
| GACCAAUCUGCCCUCAGAGCUCGAGAACAUCUUCGGAUGCAGAGGAGGCAGGCUGCGGUGGCGCGAUAGCGCCAACGUCCUCAACCUCCAAUGCAUCCCACCACAUGAUGAUGCCUGAAGCGCCUUGGUUUUUUU | 1.07 |
| GACCAAUCUGCCCUCAGAGCUCGAGAACAUCUUCGGAUGCAGAGGAGGCAGGCUACGGUGGCGCGAUAGCGCCAACGUCCACAACCUCCAAUGCAUCCCACCACAUGAUGAUACCUGAAGAGCCUUGGUUUUUUG | -2.4 |
| GACCAAUCUGCCCUCAGAGCUCGAGAACAUCUUCGGAUGCAGAGGAGGCAGGCUACGGUGGCGCGAUAGCGCCAACGUCCUCAACCUCCAAUGCAUCCCACCACAUGAUGAAGCCUGAAGAGCCUUGGUUUUUUG | 1.77 |
| GACCAAUCUGCCCUCAGAGCUCGAGAACAUCUUCGGAUGCAGAGGAGGCAGGCUCCGGUGGCGCGAUAGUGCCAACGUCCUCAACCUCCAAUGCAUCCCACCACAUGAUGAUGCCUGAAGAGCCUUGGUUUUUUG | -0.302 |
| GACCAAUCUGCCCUCAGAGCUCGAGAACAUCUUCGGAUGCAGAGGAGGCAGGCUCCGGUGGCUCGAUAGCGCCAACGUCCUCAACCUCCAAUGCAUCCCACCACAUGAUGAUGCCUGAAGAGCCUUGGUUUUUUG | -1.09 |

| Variant | polymerase ribozyme fitness (log ratio) |
| --- | --- |
| GACCAAUCUGCCCUCAGAGCUCGAGAACAUCUUCGGAUGCAGAGGAGGCAGGCUCCUGAGGCGCGAUAGCGCCAACGUCCUCAACCUCUAAUGCAUCCCACCACAUGAUGAUGCCUGAAGAGCCUUGGUUUUUUG | -2.23 |
| GACCAAUCUGCCCUCAGAGCUCGAGAACAUCUUCGGAUGCAGAGGAGGCAGGCUGCGGUGGCGCGUUAGCGCCAACGUCCUCUACCUCCAAUGCAUCCCACCACAUGAUGAUGCCUGAAGAGCCUUGGUUUUUUG | -3.53 |
| GACCAAUCUGCCCUCAGAGCUCGAGAACAUCUUCGGAUGCAGAGGAGGCAGGCUGUGGUGGCGCGAUAGCGCCAACGUCCUCAACCUCCAAUGCAUCCCACCACAUGAUGAUGCCUGAAGAGCCUUGGUUUUUUG | -0.601 |
| GACCAAUCUGCCCUCAGAGCUCGAGAACAUCUUCGGAUGCAGAGGAGGCAGGCUCCGGUGGCGCGAUAGCGCCAACGUCCUCAACCUCCAAUGCAUCCCACCACAUGAUGUUGCCUGACGAGCCUUGGUUUUUUG | -5.71 |
| GACCAAUCUGCCCUCAGAGCUCGAGAACAUCUUCGGAUGCAGAGGAGGCAGGCUCCGGUGUCGCGAUAGCGCCAACGUCCUCAACCUCCAAUGCAUCCCACCACAUGAUGAUACCUGAAGAGCCUUGGUUUUUUG | -1.64 |
| GACCAAUCUGCCCUCAGAGCUCGAGAACAUCUUCGGAUGCAGAGGAGGCAGGCUGGGGUGGCGCGAUAGCGCCAACGACCUCAACCUCCAAUGCAUCCUACCACAUGAUGAUGCCUGAAGAGCCUUGGUUAUUUG | -4.29 |
| GACCAAUCUGCCCUCAGAGCUCGAGAACAUCUUCGGAUGCAGAGGAGGCAGGCUCCAGUGGCGCGAUAGCGCCAACGUCCUCAACCUCCAAUGCAUCCCACCACAAGAUUAUGCCUGAAGAGUCUUGGUUUUUUG | -3.04 |
| GACCAAUCUGCCCUCAGAGCUCGAGAACAUCUUCGGAUGCAGAGGAGGCAGGCUCCGGUAGCGCGAUAGCGCCAACGUCCUAAACCUCCAAUGCAUCCCACCACAUGAUGAUGCCUGAAGAGCCUUGGUUUUUUG | -0.172 |
| GACCAAUCUGCCCUCAGAGCUCGAGAACAUCUUCGGAUGCAGAGGAGGCAGGCUCCGGUGGCGCGAUAGCGCCAACGUACUCAACCUCCAAUGCAUCCCACCACAUGAUGAUGCCUGAAGAGCCUUGGUUUUUUG | -2.08 |
| GACCAAUCUGCCCUCAGAGCUCGAGAACAUCUUCGGAUGCAGAGGAGGCAGGCUCCGGUGGCGUGAUAGCGCCAACGUCCUCAACCUCCAAUGCAUCCCACCACAUGAUGAUGCCUGAAGAGCCUUGGUUUUUUG | -0.472 |
| GACCAAUCUGCCCUCAGAGCUCGAGAACAUCUUCGGAUGCAGAGGAGGCAGGCUGAGGUGGCGCGAUAGCGCCAACGUGCUCAACCUCCAAUGCAUCCCACCACAUGAUGAUGCCUGAAGAGCUUUGGUUUUUUG | -0.518 |
| GACCAAUCUGCCCUCAGAGCUCGAGAACAUCUUCGGAUGCAGAGGAGGCAGGCUGCGGUGGCGCGAUAGCGCCAACGUCCUCAACCUCCCAGGCAUCCCAACACAUGAUGAUGCCUGAAGAGCCUUGGUUUUUUG | -3.67 |
| GACCAAUCUGCCCUCAGAGCUCGAGAACAUCUUCGGAUGCAGAGGAGGCAGGCUGAGGUGGCGCGAUAGCGCCAACGUCCUCAACCUCCAAUGCAUCCCACCACAAGAUGAUGCCUGAAGAGCCUUGGUUUUUUG | -1.04 |
| GACCAAUCUGCCCUCAGAGCUCGAGAACAUCUUCGGAUGCAGAGGAGGCAGGCUCCGGUGGCGCGAUAGCGCCAACGUCCUCAACCUCCAAUCCAUCCCACCACAUGAUGAUGCCUGAAGAGCCUUGGUUUUAUG | -0.554 |
| GACCAAUCUGCCCUCAGAGCUCGAGAACAUCUUCGGAUGCAGAGGAGGCAGGCUCCGGUGGCGCGAUAGCGCCAACGUCCUCAACCUCCGAUGGAUCCCACCACAUGAUCAUGCCAGAAGGGCCUUGGUUUUUUG | -5.82 |
| GACCAAUCUGCCCUCAGAGCUCGAGAACAUCUUCGGAUGCAGAGGAGGCAGGCUCCGGUGGCGCGAUAGCGCCAACGUCCUCAACCUCCAAGGCAUCCCACCACAUGAUGAUGCCUGAAGAGCCUUGGUUUUUUG | -2.25 |
| GACCAAUCUGCCCUCAGAGCUCGAGAACAUCUUCGGAUGCAGAGGAGGCAGGCUCCGGUGGCGCGAUAGCACCAACGUCCUCAUCCUCCAAUGCAUCCCACAAUAUGAUGAUGCCUGAAGAGCCUUGGUUUUUUG | -3.41 |
| GACCAAUCUGCCCUCAGAGCUCGAGAACAUCUUCGGAUGCAGAGGAGGCAGGCUCCGGUGGCGCGAUAGCGCCAACGUCCUCAACCUCCAAUGCAUCCCACCACAUGAUGAUGCGUGAAGAACCUUGGUUUUUUG | -1.84 |
| GACCAAUCUGCCCUCAGAGCUCGAGAACAUCUUCGGAUGCAGAGGAGGCAGGCUCCAGUGGCGCGAUAUCGCCAACGUCCUCAACCUCUAAUGCAUCCCACCACAUGAUUAUGCCUGAAGAGCCUUGGAUUUUUG | -3.64 |
| GACCAAUCUGCCCUCAGAGCUCGAGAACAUCUUCGGAUGCAGAGGAGGCAGGCUCCGGUGGCGCGAUAGCGCCAACGUCCUCAACCUCCAAUGCAUCCCACCACAUGAUGUUGCCUGAAGAGCCUUGGUUUUUUG | -4.15 |
| GACCAAUCUGCCCUCAGAGCUCGAGAACAUCUUCGGAUGCAGAGGAGGCAGGCUCUGGCGGCGCGAUAGCGCCAACGUCCUCAACCUCCAAUGCAUCCCACCACAUGAUGAUGCCUGAAGAGCCUUGGUUUUUUG | -0.103 |
